How the values were obtained:
[1] = αIIbβ3 cell surface expression, flow cytometry; settings: glycan lost; control: wild-type β3 with αIIb
[2] = eptifibatide-induced mAb binding, flow cytometry; settings: glycan lost; control: wild-type β3 with αIIb
[3] = surface expression by mAbs 10E5, AP2, AP3, flow cytometry; settings: glycan lost; control: wild-type αIIbβ3
[4] = αVβ3 cell surface expression, flow cytometry; settings: glycan lost; control: wild-type αV with β3

B1: integrin β3 subunit: β3-N320Q-N559Q (protein)
parent chain: MRARPRPRPLWATVLALGALAGVGVGGPNICTTRGVSSCQQCLAVSPMCAWCSDEALPLGSPRCDLKENLLKDNCAPESIEFPVSEARVLEDRPLSDKGSGDSSQVTQVSPQRIALRLRPDDSKNFSIQVRQVEDYPVDIYYLMDLSYSMKDDLWSIQNLGTKLATQMRKLTSNLRIGFGAFVDKPVSPYMYISPPEALENPCYDMKTTCLPMFGYKHVLTLTDQVTRFNEEVKKQSVSRNRDAPEGGFDAIMQATVCDEKIGWRNDASHLLVFTTDAKTHIALDGRLAGIVQPNDGQCHVGSDNHYSASTTMDYPSLGLMTEKLSQKNINLIFAVTENVVNLYQNYSELIPGTTVGVLSMDSSNVLQLIVDAYGKIRSKVELEVRDLPEELSLSFNATCLNNEVIPGLKSCMGLKIGDTVSFSIEAKVRGCPQEKEKSFTIKPVGFKDSLIVQVTFDCDCACQAQAEPNSHRCNNGNGTFECGVCRCGPGWLGSQCECSEEDYRPSQQDECSPREGQPVCSQRGECLCGQCVCHSSDFGKITGKYCECDDFSCVRYKGEMCSGHGQCSCGDCLCDSDWTGYYCNCTTRTDTCMSSNGLLCSGRGKCECGSCVCIQPGSYGDTCEKCPTCPDACTFKKECVECKKFDRGALHDENTCNRYCRDEIESVKELKDTGKDAVNCTYKNEDDCVVRFQYYEDSSGKSILYVVEEPECPKGPDILVVLLSVMGAILLIGLAALLIWKLLITIHDRKEFAKFEEERARAKWDTANNPLYKEATSTFTNITYRGT
In the case of B1, the expression_or_secretion [1] is reported as “decreases”.

B2: integrin β3 subunit: β3-N320S (protein)
parent chain: B1 parent chain
With B2 the expression_or_secretion [1] was “decreases”.

B3: integrin β3 subunit: β3-N320R (protein)
parent chain: B1 parent chain
For B3, the structure_or_conformation [2] was “decreases” and the expression_or_secretion [3] was “no change”.

B4: integrin β3 subunit: β3-N559Q (protein)
parent chain: B1 parent chain
For B4, the structure_or_conformation [2] was “decreases” and the expression_or_secretion [3] was “no change”.

B5: integrin αV subunit: αV-N950Q (protein)
parent chain: MAFPPRRRLRLGPRGLPLLLSGLLLPLCRAFNLDVDSPAEYSGPEGSYFGFAVDFFVPSASSRMFLLVGAPKANTTQPGIVEGGQVLKCDWSSTRRCQPIEFDATGNRDYAKDDPLEFKSHQWFGASVRSKQDKILACAPLYHWRTEMKQEREPVGTCFLQDGTKTVEYAPCRSQDIDADGQGFCQGGFSIDFTKADRVLLGGPGSFYWQGQLISDQVAEIVSKYDPNVYSIKYNNQLATRTAQAIFDDSYLGYSVAVGDFNGDGIDDFVSGVPRAARTLGMVYIYDGKNMSSLYNFTGEQMAAYFGFSVAATDINGDDYADVFIGAPLFMDRGSDGKLQEVGQVSVSLQRASGDFQTTKLNGFEVFARFGSAIAPLGDLDQDGFNDIAIAAPYGGEDKKGIVYIFNGRSTGLNAVPSQILEGQWAARSMPPSFGYSMKGATDIDKNGYPDLIVGAFGVDRAILYRARPVITVNAGLEVYPSILNQDNKTCSLPGTALKVSCFNVRFCLKADGKGVLPRKLNFQVELLLDKLKQKGAIRRALFLYSRSPSHSKNMTISRGGLMQCEELIAYLRDESEFRDKLTPITIFMEYRLDYRTAADTTGLQPILNQFTPANISRQAHILLDCGEDNVCKPKLEVSVDSDQKKIYIGDDNPLTLIVKAQNQGEGAYEAELIVSIPLQADFIGVVRNNEALARLSCAFKTENQTRQVVCDLGNPMKAGTQLLAGLRFSVHQQSEMDTSVKFDLQIQSSNLFDKVSPVVSHKVDLAVLAAVEIRGVSSPDHVFLPIPNWEHKENPETEEDVGPVVQHIYELRNNGPSSFSKAMLHLQWPYKYNNNTLLYILHYDIDGPMNCTSDMEINPLRIKISSLQTTEKNDTVAGQGERDHLITKRDLALSEGDIHTLGCGVAQCLKIVCQVGRLDRGKSAILYVKSLLWTETFMNKENQNHSYSLKSSASFNVIEFPYKNLPIEDITNSTLVTTNVTWGIQPAPMPVPVWVIILAVLAGLLLLAVLVFVMYRMGFFKRVRPPQEEQEREQLQPHENGEGNSET
For B5, the expression_or_secretion [4] was “decreases”.

B6: integrin αV subunit: αV-N943Q (protein)
parent chain: B5 parent chain
For B6, the expression_or_secretion [4] was “decreases”.

B7: integrin αV subunit: αV-N458Q (protein)
parent chain: B5 parent chain
In the case of B7, the expression_or_secretion [4] is reported as “no change”.
